Measured values taken from US20180155451A1 (published 2018).

T1: FcγRIIb extracellular domain with C-terminal His tag (human, UniProt P31994 43-217)
T1 construct: extracellular domain; also called FcgRIIb; 2b; not shown: His tag attached to the C terminus
T1 sequence (looked up): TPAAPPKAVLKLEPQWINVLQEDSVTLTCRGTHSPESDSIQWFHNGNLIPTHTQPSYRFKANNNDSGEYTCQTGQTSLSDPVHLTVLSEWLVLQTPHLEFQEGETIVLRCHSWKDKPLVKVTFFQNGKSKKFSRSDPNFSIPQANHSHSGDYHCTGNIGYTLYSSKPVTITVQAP

B1: GpH7-A5/GpH7-B3 variant N325_03V/GpL16-k0 (antibody, human IgG1, kappa)
heavy 1: not shown
heavy 2: not shown
light: DIVMTQSPLSLPVTPGEPASISCQASESLVHSNRNTYLHWYLQKPGQSPQLLIYKVSNRFSGVPDRFSGSGSGTDFTLKISRVEAEDVGVYYCSQNTHVPPTFGQGTKVEIERTVAAPSVFIFPPSDEQLKSGTASVVCLLNNFYPREAKVQWKVDNALQSGNSQESVTEQDSKDSTYSLSSTLTLSKADYEKHKVYACEVTHQGLSSPVTKSFNRGEC
notes: Heterodimerized IgG1; alteration in one H chain only; also called He Ab
B2: GpH7-A5/GpH7-B3 variant L328_05P/GpL16-k0 (antibody, human IgG1, kappa)
heavy 1: not shown
heavy 2: not shown
light: DIVMTQSPLSLPVTPGEPASISCQASESLVHSNRNTYLHWYLQKPGQSPQLLIYKVSNRFSGVPDRFSGSGSGTDFTLKISRVEAEDVGVYYCSQNTHVPPTFGQGTKVEIERTVAAPSVFIFPPSDEQLKSGTASVVCLLNNFYPREAKVQWKVDNALQSGNSQESVTEQDSKDSTYSLSSTLTLSKADYEKHKVYACEVTHQGLSSPVTKSFNRGEC
notes: as for B1
B3: GpH7-A5/GpH7-B3 variant N325_11K/GpL16-k0 (antibody, human IgG1, kappa)
heavy 1: not shown
heavy 2: not shown
light: DIVMTQSPLSLPVTPGEPASISCQASESLVHSNRNTYLHWYLQKPGQSPQLLIYKVSNRFSGVPDRFSGSGSGTDFTLKISRVEAEDVGVYYCSQNTHVPPTFGQGTKVEIERTVAAPSVFIFPPSDEQLKSGTASVVCLLNNFYPREAKVQWKVDNALQSGNSQESVTEQDSKDSTYSLSSTLTLSKADYEKHKVYACEVTHQGLSSPVTKSFNRGEC
notes: as for B1
B4: GpH7-A5/GpH7-B3 variant N325_10E/GpL16-k0 (antibody, human IgG1, kappa)
heavy 1: not shown
heavy 2: not shown
light: DIVMTQSPLSLPVTPGEPASISCQASESLVHSNRNTYLHWYLQKPGQSPQLLIYKVSNRFSGVPDRFSGSGSGTDFTLKISRVEAEDVGVYYCSQNTHVPPTFGQGTKVEIERTVAAPSVFIFPPSDEQLKSGTASVVCLLNNFYPREAKVQWKVDNALQSGNSQESVTEQDSKDSTYSLSSTLTLSKADYEKHKVYACEVTHQGLSSPVTKSFNRGEC
notes: as for B1
B5: GpH7-A5/GpH7-B3 variant N325_09D/GpL16-k0 (antibody, human IgG1, kappa)
heavy 1: not shown
heavy 2: not shown
light: DIVMTQSPLSLPVTPGEPASISCQASESLVHSNRNTYLHWYLQKPGQSPQLLIYKVSNRFSGVPDRFSGSGSGTDFTLKISRVEAEDVGVYYCSQNTHVPPTFGQGTKVEIERTVAAPSVFIFPPSDEQLKSGTASVVCLLNNFYPREAKVQWKVDNALQSGNSQESVTEQDSKDSTYSLSSTLTLSKADYEKHKVYACEVTHQGLSSPVTKSFNRGEC
notes: as for B1
B6: GpH7-A5/GpH7-B3 variant L328_02A/GpL16-k0 (antibody, human IgG1, kappa)
heavy 1: not shown
heavy 2: not shown
light: DIVMTQSPLSLPVTPGEPASISCQASESLVHSNRNTYLHWYLQKPGQSPQLLIYKVSNRFSGVPDRFSGSGSGTDFTLKISRVEAEDVGVYYCSQNTHVPPTFGQGTKVEIERTVAAPSVFIFPPSDEQLKSGTASVVCLLNNFYPREAKVQWKVDNALQSGNSQESVTEQDSKDSTYSLSSTLTLSKADYEKHKVYACEVTHQGLSSPVTKSFNRGEC
notes: as for B1
B7: GpH7-A5/GpH7-B3 variant N325_07I/GpL16-k0 (antibody, human IgG1, kappa)
heavy 1: not shown
heavy 2: not shown
light: DIVMTQSPLSLPVTPGEPASISCQASESLVHSNRNTYLHWYLQKPGQSPQLLIYKVSNRFSGVPDRFSGSGSGTDFTLKISRVEAEDVGVYYCSQNTHVPPTFGQGTKVEIERTVAAPSVFIFPPSDEQLKSGTASVVCLLNNFYPREAKVQWKVDNALQSGNSQESVTEQDSKDSTYSLSSTLTLSKADYEKHKVYACEVTHQGLSSPVTKSFNRGEC
notes: as for B1
B8: GpH7-A5/GpH7-B3 variant L328_01G/GpL16-k0 (antibody, human IgG1, kappa)
heavy 1: not shown
heavy 2: not shown
light: DIVMTQSPLSLPVTPGEPASISCQASESLVHSNRNTYLHWYLQKPGQSPQLLIYKVSNRFSGVPDRFSGSGSGTDFTLKISRVEAEDVGVYYCSQNTHVPPTFGQGTKVEIERTVAAPSVFIFPPSDEQLKSGTASVVCLLNNFYPREAKVQWKVDNALQSGNSQESVTEQDSKDSTYSLSSTLTLSKADYEKHKVYACEVTHQGLSSPVTKSFNRGEC
notes: as for B1

Columns and labels:
[1] = target: T2, FcγRIIIa extracellular domain with C-terminal His tag (human, UniProt P08637 17-208); assay: SPR (Biacore); He/Con_3a divided by He/Con_2b (reference: binding to FcγRIIb)
T2 construct: extracellular domain; also called FcgRIIIa; 3a; not shown: His tag attached to the C terminus
T2 sequence (P08637 17-208): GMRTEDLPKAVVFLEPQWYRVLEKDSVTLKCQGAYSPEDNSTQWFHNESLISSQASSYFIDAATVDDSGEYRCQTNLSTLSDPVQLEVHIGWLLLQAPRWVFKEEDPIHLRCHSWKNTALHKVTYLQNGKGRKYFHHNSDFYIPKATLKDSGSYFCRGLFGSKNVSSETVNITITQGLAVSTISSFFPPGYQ
Experimental: (§1) Analysis of interaction between objective antibody and the FcγR was carried out using Biacore T100 (GE Healthcare). HBS-EP+ (GE Healthcare) was used as the running buffer, and the measurement temperature was set to 25° C. Chips produced by immobilizing the antigen peptide by the amine coupling method to a Series S Sencor Chip CM5 (GE Healthcare), or alternatively, chips produced by allowing preliminarily biotinylated antigen peptides to interact with and immobilize onto a Series S Sensor Chip SA (certified) (GE Healthcare) were used. Antibodies of interest were captured onto an antigen peptide-immobilized chip, and allowed to interact to each FcγR diluted with running buffer. To regenerate and repeatedly use the chip, the antibodies captured on the chip were washed off by reacting 10 mM glycine-HCl, pH 1.5.
(§2) The FcγR-binding activity of each antibody was assessed primarily using as an indicator the FcγR-binding activity and dissociation constant for FcγR.

[2] = target: T2, FcγRIIIa extracellular domain with …; assay: SPR (Biacore), relative binding
Experimental: as §1, §2

[3] = target: T1, FcγRIIb extracellular domain with …; assay: SPR (Biacore), relative binding
Experimental: as §1, §2

Row | Binder | He_3a/2b (IIIa/IIb) [1] [ratio] | He/Con_3a (IIIa binding) [2] | He/Con_2b (IIb binding) [3]
1 | B1 | 0.27 | 30.3 % of GpH7-A5/GpH7-B3/GpL16-k0 (=100) | 111 % of GpH7-A5/GpH7-B3/GpL16-k0 (=100)
2 | B2 | 0.62 | 40.5 % of GpH7-A5/GpH7-B3/GpL16-k0 (=100) | 65.1 % of GpH7-A5/GpH7-B3/GpL16-k0 (=100)
3 | B3 | 0.5 | 5.2 % of GpH7-A5/GpH7-B3/GpL16-k0 (=100) | 10.4 % of GpH7-A5/GpH7-B3/GpL16-k0 (=100)
4 | B4 | 0.4 | 38.2 % of GpH7-A5/GpH7-B3/GpL16-k0 (=100) | 95.9 % of GpH7-A5/GpH7-B3/GpL16-k0 (=100)
5 | B5 | 0.39 | 48 % of GpH7-A5/GpH7-B3/GpL16-k0 (=100) | 124 % of GpH7-A5/GpH7-B3/GpL16-k0 (=100)
6 | B6 | 0.55 | 79.1 % of GpH7-A5/GpH7-B3/GpL16-k0 (=100) | 144 % of GpH7-A5/GpH7-B3/GpL16-k0 (=100)
7 | B7 | 0.17 | 28.7 % of GpH7-A5/GpH7-B3/GpL16-k0 (=100) | 171 % of GpH7-A5/GpH7-B3/GpL16-k0 (=100)
8 | B8 | 0.56 | 44.9 % of GpH7-A5/GpH7-B3/GpL16-k0 (=100) | 80.2 % of GpH7-A5/GpH7-B3/GpL16-k0 (=100)
